Reference: paper doi:10.1101/2020.09.29.317933 (bioRxiv, 2020)

T1: lamin A/C 250-400 fragment (C-terminal part of coil 2), wild type, tag-free (human, UniProt P02545 250-400)
T1 sequence (looked up): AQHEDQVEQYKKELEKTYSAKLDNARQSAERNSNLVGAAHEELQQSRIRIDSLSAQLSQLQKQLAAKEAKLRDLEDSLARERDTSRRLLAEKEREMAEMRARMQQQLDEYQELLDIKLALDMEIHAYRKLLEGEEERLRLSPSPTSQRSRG

T2: His-tagged lamin A/C 250-400 fragment, L362C (human, UniProt P02545 250-400, L362C)
T2 sequence (looked up): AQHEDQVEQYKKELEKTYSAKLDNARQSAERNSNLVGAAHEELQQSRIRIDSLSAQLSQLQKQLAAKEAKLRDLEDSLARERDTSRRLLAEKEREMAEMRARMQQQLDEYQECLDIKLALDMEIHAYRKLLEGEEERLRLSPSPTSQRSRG

T3: His-tagged lamin A/C 250-400 fragment, wild type (human, UniProt P02545 250-400)
T3 sequence (looked up): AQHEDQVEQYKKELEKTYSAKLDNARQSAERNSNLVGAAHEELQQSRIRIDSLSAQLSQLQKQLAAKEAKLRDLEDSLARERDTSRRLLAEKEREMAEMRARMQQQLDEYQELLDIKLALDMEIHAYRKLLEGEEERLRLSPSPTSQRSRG

T4: lamin A/C 250-400 fragment, Y267C, tag-free (human, UniProt P02545 250-400, Y267C)
T4 sequence (looked up): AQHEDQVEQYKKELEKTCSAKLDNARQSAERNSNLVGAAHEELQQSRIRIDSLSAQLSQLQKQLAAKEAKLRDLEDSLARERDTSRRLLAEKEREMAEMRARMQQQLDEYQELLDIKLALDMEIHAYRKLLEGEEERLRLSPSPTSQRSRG

T5: lamin A/C 250-400 fragment, K316C, tag-free (human, UniProt P02545 250-400, K316C)
T5 sequence (looked up): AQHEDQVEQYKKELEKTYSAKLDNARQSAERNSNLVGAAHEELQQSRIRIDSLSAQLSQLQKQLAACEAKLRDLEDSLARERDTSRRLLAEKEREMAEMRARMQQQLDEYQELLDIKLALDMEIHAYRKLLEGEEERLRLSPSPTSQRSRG


Legend:
[1] = target: the molecule itself
[2] = target: T1, lamin A/C 250-400 fragment (C-terminal …); assay: pull-down
[3] = target: T2, His-tagged lamin A/C 250-400 fragment, …; assay: pull-down
[4] = target: T3, His-tagged lamin A/C 250-400 fragment, …; assay: pull-down
[5] = target: T4, lamin A/C 250-400 fragment, Y267C, …; assay: pull-down
[6] = target: T5, lamin A/C 250-400 fragment, K316C, …; assay: pull-down

Binder | binding result [2] | stoichiometry N [1] | also measured
His-tagged lamin A/C 1-300 fragment, wild type (domain or fragment, human, UniProt P02545 1-300, looked up) METPSQRRATRSGAQASSTPLSPTRITRLQEKEDLQELNDRLAVYIDRVRSLETENAGLRLRITESEEVVSREVSGIKAAYEAELGDARKTLDSVAKERARLQLELSKVREEFKELKARNTKKEGDLIAAQARLKDLEALLNSKEAALSTALSEKRTLEGELHDLRGQVAKLEAALGEAKKQLQDEMLRRVDAENRLQTMKEELDFQKNIYSEELRETKRRHETRLVEIDNGKQREFESRLADALQELRAQHEDQVEQYKKELEKTYSAKLDNARQSAERNSNLVGAAHEELQQSRIRID | – | 2 | –
His-tagged lamin A/C 1-300 fragment, Y45C (domain or fragment, human, UniProt P02545 1-300, looked up) METPSQRRATRSGAQASSTPLSPTRITRLQEKEDLQELNDRLAVCIDRVRSLETENAGLRLRITESEEVVSREVSGIKAAYEAELGDARKTLDSVAKERARLQLELSKVREEFKELKARNTKKEGDLIAAQARLKDLEALLNSKEAALSTALSEKRTLEGELHDLRGQVAKLEAALGEAKKQLQDEMLRRVDAENRLQTMKEELDFQKNIYSEELRETKRRHETRLVEIDNGKQREFESRLADALQELRAQHEDQVEQYKKELEKTYSAKLDNARQSAERNSNLVGAAHEELQQSRIRID | – | 2 | –
His-tagged lamin A/C 1-300 fragment, I63S (domain or fragment, human, UniProt P02545 1-300, looked up) METPSQRRATRSGAQASSTPLSPTRITRLQEKEDLQELNDRLAVYIDRVRSLETENAGLRLRSTESEEVVSREVSGIKAAYEAELGDARKTLDSVAKERARLQLELSKVREEFKELKARNTKKEGDLIAAQARLKDLEALLNSKEAALSTALSEKRTLEGELHDLRGQVAKLEAALGEAKKQLQDEMLRRVDAENRLQTMKEELDFQKNIYSEELRETKRRHETRLVEIDNGKQREFESRLADALQELRAQHEDQVEQYKKELEKTYSAKLDNARQSAERNSNLVGAAHEELQQSRIRID | – | 2 | –
His-tagged lamin A/C 1-300 fragment, L59R (domain or fragment, human, UniProt P02545 1-300, looked up) METPSQRRATRSGAQASSTPLSPTRITRLQEKEDLQELNDRLAVYIDRVRSLETENAGRRLRITESEEVVSREVSGIKAAYEAELGDARKTLDSVAKERARLQLELSKVREEFKELKARNTKKEGDLIAAQARLKDLEALLNSKEAALSTALSEKRTLEGELHDLRGQVAKLEAALGEAKKQLQDEMLRRVDAENRLQTMKEELDFQKNIYSEELRETKRRHETRLVEIDNGKQREFESRLADALQELRAQHEDQVEQYKKELEKTYSAKLDNARQSAERNSNLVGAAHEELQQSRIRID | – | 2 | –
His-tagged lamin A/C 1-300 fragment, L35V (domain or fragment, human, UniProt P02545 1-300, looked up) METPSQRRATRSGAQASSTPLSPTRITRLQEKEDVQELNDRLAVYIDRVRSLETENAGLRLRITESEEVVSREVSGIKAAYEAELGDARKTLDSVAKERARLQLELSKVREEFKELKARNTKKEGDLIAAQARLKDLEALLNSKEAALSTALSEKRTLEGELHDLRGQVAKLEAALGEAKKQLQDEMLRRVDAENRLQTMKEELDFQKNIYSEELRETKRRHETRLVEIDNGKQREFESRLADALQELRAQHEDQVEQYKKELEKTYSAKLDNARQSAERNSNLVGAAHEELQQSRIRID | – | 2 | –
His-tagged lamin A/C 1-125 fragment, I63S (domain or fragment, human, UniProt P02545 1-125, looked up) METPSQRRATRSGAQASSTPLSPTRITRLQEKEDLQELNDRLAVYIDRVRSLETENAGLRLRSTESEEVVSREVSGIKAAYEAELGDARKTLDSVAKERARLQLELSKVREEFKELKARNTKKEG | binds | – | –
lamin A/C 1-125 fragment, wild type, prey of Fig. 6B (domain or fragment, human, UniProt P02545 1-125, looked up) METPSQRRATRSGAQASSTPLSPTRITRLQEKEDLQELNDRLAVYIDRVRSLETENAGLRLRITESEEVVSREVSGIKAAYEAELGDARKTLDSVAKERARLQLELSKVREEFKELKARNTKKEG | – | – | binding result [3]: binds; binding result [4]: binds
His-tagged lamin A/C 1-125 fragment, L59R (domain or fragment, human, UniProt P02545 1-125, looked up) METPSQRRATRSGAQASSTPLSPTRITRLQEKEDLQELNDRLAVYIDRVRSLETENAGRRLRITESEEVVSREVSGIKAAYEAELGDARKTLDSVAKERARLQLELSKVREEFKELKARNTKKEG | binds | – | –

Second part, led by results:

binding result [2] | Binder | stoichiometry N [1] | also measured
binds | His-tagged lamin A/C 1-125 fragment, wild type (domain or fragment, human, UniProt P02545 1-125, looked up) METPSQRRATRSGAQASSTPLSPTRITRLQEKEDLQELNDRLAVYIDRVRSLETENAGLRLRITESEEVVSREVSGIKAAYEAELGDARKTLDSVAKERARLQLELSKVREEFKELKARNTKKEG | – | binding result [5]: binds; binding result [6]: binds
binds | His-tagged lamin A/C 1-125 fragment, L35V (domain or fragment, human, UniProt P02545 1-125, looked up) METPSQRRATRSGAQASSTPLSPTRITRLQEKEDVQELNDRLAVYIDRVRSLETENAGLRLRITESEEVVSREVSGIKAAYEAELGDARKTLDSVAKERARLQLELSKVREEFKELKARNTKKEG | – | –
binds | His-tagged lamin A/C 1-125 fragment, Y45C (domain or fragment, human, UniProt P02545 1-125, looked up) METPSQRRATRSGAQASSTPLSPTRITRLQEKEDLQELNDRLAVCIDRVRSLETENAGLRLRITESEEVVSREVSGIKAAYEAELGDARKTLDSVAKERARLQLELSKVREEFKELKARNTKKEG | – | –
